These results are taken from patent US20240043562A1 (ACADEMISCH ZIEKENHUIS LEIDEN H O D N LUMC, published 2024).

The target in the assay is T1, MuSK at the postsynaptic membrane of mouse neuromuscular junctions (levator auris longus muscle) (mouse, UniProt Q61006 22-868).
T1 construct: whole, on cells; Target in tissue immunostaining; also called mouse NMJs; MuSK at the NMJ
T1 sequence (looked up): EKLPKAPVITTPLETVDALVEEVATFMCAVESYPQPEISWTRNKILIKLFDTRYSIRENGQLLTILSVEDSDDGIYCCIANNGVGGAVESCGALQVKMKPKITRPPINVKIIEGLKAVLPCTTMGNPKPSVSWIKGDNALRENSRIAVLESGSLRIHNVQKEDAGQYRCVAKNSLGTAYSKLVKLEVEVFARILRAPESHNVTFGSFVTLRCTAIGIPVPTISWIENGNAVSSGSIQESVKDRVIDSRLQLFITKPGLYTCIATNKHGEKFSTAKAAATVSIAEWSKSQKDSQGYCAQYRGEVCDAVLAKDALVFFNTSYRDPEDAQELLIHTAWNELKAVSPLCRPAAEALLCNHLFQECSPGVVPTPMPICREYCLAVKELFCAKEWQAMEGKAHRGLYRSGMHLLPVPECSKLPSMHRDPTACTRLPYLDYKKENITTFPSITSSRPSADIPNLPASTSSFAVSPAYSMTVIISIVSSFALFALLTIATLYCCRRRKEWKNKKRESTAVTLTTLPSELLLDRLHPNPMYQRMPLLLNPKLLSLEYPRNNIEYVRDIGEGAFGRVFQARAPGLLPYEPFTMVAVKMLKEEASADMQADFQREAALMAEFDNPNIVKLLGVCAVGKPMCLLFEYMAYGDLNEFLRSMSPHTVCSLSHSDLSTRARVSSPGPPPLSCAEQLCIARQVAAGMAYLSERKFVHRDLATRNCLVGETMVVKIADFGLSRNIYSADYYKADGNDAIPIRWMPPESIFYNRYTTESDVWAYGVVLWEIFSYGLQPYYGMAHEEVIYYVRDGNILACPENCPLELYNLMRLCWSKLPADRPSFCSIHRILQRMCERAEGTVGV
Kind of assay: immunostaining of whole-mount mouse levator auris longus muscle. As to the method: FIG. 6—anti-MuSK/Anti-HIV-b12 exchanged heterospecific IgG4 antibodies were generated using methods detailed in Labrijn, 2014, Nature Protocols and Genmab, Labrijn, 2013, PNAS, which were adjusted to IgG4. These antibodies were tested for MuSK binding in mouse neuromuscular junction (NMJ) in ex vivo levator auris longus muscle. Equivalent anti-MuSK homospecific antibodies were also tested in parallel. The data confirms that both heterospecific MuSK IgG4 antibodies (13-3B5/HIV IgG4 and 11-3F6/HIV IgG4) and homospecific MuSK IgG4 antibodies (13-3B5 IgG4 and 11-3F6 IgG4) bind to MuSK at the NMJ.
To determine the binding characteristics of the recombinant and medium produced antibodies we performed an epitope mapping ELISA as described previously (Huijbers et al., 2016). Truncated versions of the MuSK proteins were immobilized on maxisorp plates and exposed to either antibodies from the single cell cultures 1:10 or to recombinant antibodies. Recombinant antibodies were also used to immunostain mouse levator auris longus muscle overnight at 4° C. at 1:100. AChRs in synaptic regions were labelled with AlexaFluor488 conjugated alpha-bungarotoxin (Life technologies) and bound recombinant antibodies were detected with AlexaFluor594 conjugated goat anti-human IgG (Life technologies). Muscles were imaged on a Leica SP8 confocal laser-scanning microscope and analyzed using Las X software.

B1: recombinant 11-3F6 IgG4 (antibody, V domains shown)
VH: EVQLVESGGGLVKPGGSLRLSCAASGFTFSSYTMDWVRQAPGKGLEWVSSIGSNGDYIYYADSVRGRFTISRDNAKNSLYLQMNSLRPDDTADYYCARGQLAVAGTHFDYWGRGSLVTVSS
VL: DIQMTQSPSSLSASVGDRVTISCRASQKVNKYVNWYQQTPGKAPRLLIYAASTLQSGVPSRFSGSGSGANFTLTISGLQPEDFAIYFCQQSYSPLCTFGQGTKLEIK
notes: Variable regions cloned in an IgG4 backbone and expressed in HEK293-F cells; Bivalent and monospecific; also called homospecific 11-3F6 IgG4
Consider B1, for which the binding result was “binds”.

B2: recombinant 13-3B5 IgG4 (antibody, V domains shown)
VH: QVQLVQSGAVVAKPGASVQVSCKTSGYTFTGQYLHWVRQAPGQGLEWIGWINPSSGVTKFAEKFEGRATMTRDTSITTAYIDLRSLRSDDTATYYCATLSLGVYYVGMVAWGQGTLVTVSS
VL: SYELTQPPSVSVSPGQTATITCSGDGLAQQHVYWFQQRPGQAPLLIIYKDIERPSGIPERFSGSSSGTTAMLTISGVQAEDEADYYCQSGDRTATSVLFGGGTKMTVL
notes: Variable regions cloned in an IgG4 backbone and expressed in HEK293-F cells; Bivalent and monospecific; also called homospecific 13-3B5 IgG4; 13-365
B2: the binding result is on record as “binds”.
